From patent US20230285581A1 (published 2023) come the findings set out here.

What is called t½ is the time needed for the level to fall by half in the phase considered.

Assay [1] addresses T1, full length monkey MSR1 on HEK293.mfMSR1 cells (Macaca fascicularis, UniProt A0A2K5UWE2 1-451).
T1 construct: whole, on cells
T1 sequence: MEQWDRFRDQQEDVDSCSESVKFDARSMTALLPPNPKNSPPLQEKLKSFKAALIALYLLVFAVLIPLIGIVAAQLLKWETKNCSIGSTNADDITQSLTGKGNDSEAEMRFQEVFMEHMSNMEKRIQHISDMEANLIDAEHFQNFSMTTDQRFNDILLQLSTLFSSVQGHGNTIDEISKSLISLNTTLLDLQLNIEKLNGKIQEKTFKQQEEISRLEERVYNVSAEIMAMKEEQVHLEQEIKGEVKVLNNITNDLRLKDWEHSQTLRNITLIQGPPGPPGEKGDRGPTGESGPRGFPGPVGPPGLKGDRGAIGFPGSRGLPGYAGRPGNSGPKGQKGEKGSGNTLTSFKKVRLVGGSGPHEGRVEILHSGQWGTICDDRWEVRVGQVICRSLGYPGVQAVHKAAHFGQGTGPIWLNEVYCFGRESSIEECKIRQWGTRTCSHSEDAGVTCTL
Description: ECL cell binding, HEK293.mfMSR1 cells.

Assay [2] addresses T2, mouse MSR1 extracellular domain expressed with a N-terminal nonahistidine tag (mouse, UniProt P30204 79-458).
T2 construct: extracellular domain; Bought reagent; also called His9-mMSR1
T2 sequence: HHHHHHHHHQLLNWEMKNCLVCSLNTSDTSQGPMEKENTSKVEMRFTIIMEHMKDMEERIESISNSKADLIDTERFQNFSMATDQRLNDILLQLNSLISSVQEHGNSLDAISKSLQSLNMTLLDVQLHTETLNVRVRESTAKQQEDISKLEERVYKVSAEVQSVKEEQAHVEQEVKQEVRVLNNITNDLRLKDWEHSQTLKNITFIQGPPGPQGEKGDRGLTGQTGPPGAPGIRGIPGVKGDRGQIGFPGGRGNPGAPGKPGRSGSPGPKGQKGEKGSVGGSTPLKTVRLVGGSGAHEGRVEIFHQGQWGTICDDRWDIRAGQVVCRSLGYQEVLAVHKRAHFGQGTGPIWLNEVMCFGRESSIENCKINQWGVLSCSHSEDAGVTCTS
Description: BLI (Octet), 25C, mAb captured; no dissociation seen, kd fixed at 5.00E-05. In general terms: Biolayer interferometry detects binding as a change in optical thickness at a sensor tip.
Description: Binding affinities and kinetic constants of human anti-MSR1 antibodies for different MSR1 reagents were determined using a real time, label-free bio-layer interferometry assay on an OCTET® HTX biosensor platform (Pall FortéBio Corp., Menlo Park, Calif.). The experiment was performed at 25° C. in 10 mM HEPES, 150 mM NaCl, 3 mM EDTA, 0.05% v/v Surfactant Tween-20, and 1 mg/mL BSA, pH7.4 (HBS-EBT) buffer with the plate shaking at the speed of 1000 rpm. […] The anti-MSR1 monoclonal antibodies were captured by dipping either anti-human Fc (AHC) or anti-mouse Fc (AMC) Octet biosensors in wells containing 5 μg/mL or 10 μg/mL of anti-MSR1 monoclonal antibody for 45-90 seconds. […] The binding of different MSR1 reagents to the captured anti-MSR1 monoclonal antibody was measured for 4 minutes and the dissociation of monoclonal antibody bound MSR1 reagent was monitored for 8-10 minutes in HBS-EBT buffer.
The association rate (kₐ) and dissociation rate (kd) were determined by fitting the real-time binding sensorgrams to a 1:1 binding model with mass transport limitation using Scrubber 2.0c curve-fitting software. Binding dissociation equilibrium constant (KD) and dissociative half-life (t½) were calculated from the kinetic rates as:

B1: H1H27766P2-N297Q (antibody, human IgG1, V domains shown)
VH: EVQLVESGGGLVQPGGSLRLSCAASGFTFSSFAMSWVRQAPGKELEWVSSISGRGGSTYYADSVRGRFTISRDNSKITLYLQMNSLRAEDTAVYYCAKDIVFRYTSSAYWYFDLWGRGTLVTVSS
VL: not shown
notes: human IgG1 Fc with N297Q; also called H1H27766P-N297Q
With B1, the “ratio of 11 nM antibody binding signal (RLU) to isotype control” value (shortened to “ratio of 11 nM antibody binding signal”) in assay [1] was found to be 13 ratio.

B2: H1xH29282P2 (antibody, V domains shown)
VH: EVQLVESGGGLVQPGGSLRLSCAASGFTFSTYAMSWVRQAPGKGLEWVSTISGRSDITYFADSVKGRFTVSRDNSKTTLYLQMNSLRAEDTAVYYCATDDDLPLDYWGQGTLVTVSS
VL: not shown
notes: the prefix H1xH is not explained for the anti-MSR1 antibodies
B2: in assay [1], the “ratio of 11 nM antibody binding signal” value is 1 ratio.

B3: H2aM21229N (antibody, mouse IgG2a, V domains shown)
VH: EVQLVESGGGLVKPGGSLRLSCAASGFTFSRYSMNWVRQAPGKGLEWVSSISSSSSYIYYGDTVKGRFTISRDNAKKSLYLQMNSLRAEDTAVYYCVRDRGQLVLYFDYWGQGTLVTVSS
VL: DIQMTQSPASLSTSIRDRVTITCRASLSISSFLNWFQQRPGKAPKLLIYVASNLQSGVPSRFSDSGSGTDFTLTISSLQPEDFATYYCQQNYSTPPITFGQGTRLEIK
notes: mouse IgG2a Fc (H2aM)
As to B3, the “ratio of 11 nM antibody binding signal” value in assay [1] stood at 27 ratio.

B4: H1H21234N-N297Q (antibody, human IgG1, V domains shown)
VH: QVQLQESGPGLVKPSETLSLTCTVTGGSISRNYWSWIRQPPGKGLEWIGYIYYSGSIDYNPSLKSRVTISVDTSKNQFSLKLSSMTAADTAVYYCARDRWNWKYGMDVWGQGTTVIVSS
VL: EIVLTQSPGTLSLSPGERATLSCRASQTVRNNYLAWYHQKPGQAPRLLIYGASSRATGIPDRFSGSGSGTDFTLTISRLEPEDFTVYYCHQYGNSPWTFGQGTKMEIKR
notes: human IgG1 Fc with N297Q
Turning to B4, the t½ in assay [2] was ≥ 3.85 h.

B5: H1H21234N (antibody, human IgG1, V domains shown)
VH: B4 VH
VL: B4 VL
notes: original human IgG1 Fc
In the case of B5, the t½ in assay [2] is ≥ 3.85 h.
